Test: soluble on expression in E. coli; label from the status in PepcDB or PDB records

Sequence	soluble on expression in E. coli
MSLAELAAVPAAPDDRLYSADNTQSSGETIRHLTWSGYEAANVQRPFEKKFDCQTGVDLFTSNLDAFNRLDDGAWREFDHATFDMAWLPDLAEAGLIRPLDYEAWKPYTFDKYTDLFQRENGYEFAFLDEDYNFDADGQLYGVPQRFGWASFALNTDVVSESDARSYDAAWADEYDVGVYDLPFWGVQIVMLREGIDPYATHTDAEVERIREATVALFENAAGVYADVGSLNTALAAGDIDIAFVSGNWINGSLRRGGRFEYEARVPDEGGVIWVETTTMLKGSHPSVSTNYLAYMQHGITAKNLMWPTVGGTNVVPHQSSIDRLNRRQRTVLRIDDLQDIIDKSRFYTGEGHHHHHH	soluble
MGKVPEEVRSYLMEAHSLAGQWSLPNDRGDHTNSEAYDVNSVAIIGGGTMGKAMAICFGLAGIETFLVVRNEQRCKQELEVMYAREKSFKRLNDKRIEKINANLKITSDFHKLSNCDLIVESVIEDMKLKKELFANLENICKSTCIFGTNTSSLDLNEISSVLRDPSNLVGIHFFNPANVIRLVEIIYGSHTSSQAIATAFQACESIKKLPVLVGNCKSFVFNRLLHVYFDQSQKLMYEYGYLPHQIDKIITNFGFLMGPMTVADMNGFDVMEKLKKENGLEPNPIEKEMWRLKRYGRKTNKGFYKYDDKTQRKENDTEMEQIIRRVSQNAKSNIQIINDQDVINFMLYPTVNEGYRCIEEGVISNESLIDIMFILGFGWPIHSGGPMRFGKTEGLDKIANMLVHWSSLEPKESAYIVADALKTANNKLMSSKL	soluble
MAHHHHHHMGCVNCKKAKRRKDHPTLEEAAARETERERWAAAEQGFAAQNLYTSVHAANSLPLTEREGATPLPATPGRLENVPQISAAAAAPGETENGRGWNSKKKSNSQATGKADNDSTAAALARVTRTAAPSESSRETPKGRRNKHQYRCHPGVSSWSDGSLPLSVDSVGSAKCPHSSSSSSSSSAQTYKSKKGAEDAKKHGSPGSITAAEIWPQENSDDSVAQGHLNSASHSQTATAWLHINGLTAAGTTSSTNARQTRQPKMYHRSSNVSSDSRSNATPPGMETKVYPSADALDDGPSDWGSTSHDVPAAIPAPNTSVESGGAAAEASSLPNRAPFEPYSDLGSRDVTDYLPPYEWAPRTLPVPSPLRACGPVDMAQWEDGENQFCGLAAAGTTARFQDPVVNVSAEGATTSNSAVAEGNYGASHPFALHTFYPRLPPAQWSSSSSDDTINGPEASAAAFDYPHLPVNAFIQKAHPHQQQPTYRAMYEGDASVRYSPAGYASHEATPRRAVPPSLVDVHVSEAVGYASPPLVNNAHSFYPSRALLPMHHSHAVPDSGSGKPMAYSHALPAMTTSAPQIYHDGNRNRSGNISIVSIGGGVHPHKPVSYLFDSSMDDWLQSRHAQPPQRQLYGESVDMW	soluble
MSLKKILIIDQQDFSRIELKNFLDSEYLVIESKNEKEALEQIDHHHPDLVILDMDIIGENSPNLCLKLKRSKGLKNVPLILLFSSEHKEAIVNGLHSGADDYLTKPFNRNDLLSRIEIHLRTQNYYSDLRKNDLLMLLELTETISVTRNPRRILSIIVERLIKTIDVSRCSIIGINDFGELLVLASSDLPENQEIKLDLKKYPEIEKALETQRPVVLQDITNSALMKPVKKHIEALSDNAVFVVPIIKKQNVIGTFFLRTACLQKGGITDRIFKLCQVIASISGNALENAIIFESMETNKKLLEDLSVRDSLTKLYNHQHYHSRLEDEFSRAQRYNLDLSCIFLDIDNFKNINDRYGHLAGDMVLRQIARLISQVIRKSDISARYGGEEFAICLPNTGGVAANELAERLLVMIRELSIQQLKGEHVTVSIGTSTYSNHNVASYSELLHLADDAMYEAKKSGKNRFCCSTAMEGHHHHHH	soluble
MESADGEIEALCSIWDGVHVESKLEASRRYLKHKIKSLEDESTSASVLIEMTVSEGYPAVSPTVTLSNPRGIGEPEFRELQRQIQEIIEQNSDEMPIICQIFQHCSDFLTENQHQNMDCSICLICLASSPIIVTACDHFMHFACFNRYLTECLTGLRQEIQDAQKHMKEQVETNIFCPVCRAQLTDSNTIHNYRENVQLMIKNCKKNQKTLKNKKRRSSTTTEDVQKTIKRWHEEQRKLSKIYEKQKEKGGIIDIEEEKKRRQFFIETTTNEETDEAESTDIAENID	not soluble
MSLSRKWLNKVKWDDHGLVPVIVQEQGSNDVLMFAFMNREALQKTVETGEAVFWSRSRKRLWHKGEESGHIQQVHEIRLDCDEDVVLLRVTQVGGIACHTGRHACFFQKFEGTAEDGDWHTVEPVLKNPDDIYAGKPGHNHEEGHHHHHH	not soluble
MSLDHFQIDHIAIAVPSLNTSLPLFEQALQATASHEERLPHHHINAVFINGRGVGYELIEPHPSNVSMQRFLAKQNNRPAFHHIAFSVANIETAIGMLKEKHVRLTSELPLIGSFGRKVAFIHPSSTGGLLVELCEGKTEGHHHHHH	soluble
MGSDKIHHHHHHMTTTPLPTFSDDQAQAHDRIAEVLRDMGVDIDDDTLVPAKDTKSAVLAVTGKAGSGKTLLLAELVKALERTGVEIVSGDWEGKRRKDRRTVAVLAPTNKAASVLRNRGVPATTIHRILYTPMYDPEFEKVAEWLAGQGERPSIEALTDAAMDRAKEVYETTKSVPAALASAGLRGSDFITGWKRREDGLDIGLVDESSMLDDKQFQDLKEIFPTLVLFGDPAQLAPVGQSGEMIFDRFKGDNLLHLGRVHRQDADNPILDLAHALGDPQLEFRDFEQMIEDAAARDDRVVVSPRANSDMMARSPVLVWRNATRIRLIAAFRAAFGAGDDEILPGEPLICDGIELPLKHRKKRIDLEARGLIKGAPVVYLGPGNKPGFSRLHVMGAETPRFSAASIVKIEKPGEEEPFLPYAARMGAAFLHGAAVTMHKAQGSQWPEVQVFSPDLYAASRAGRMEAGQALWKRLAYVAITRAEERLFWVTRYMLSRPVHDLSTDDLTVKAAPLELEAEEDADTSTM	not soluble
MQVINLKYPVALSQIPEGPIVLALGFFDGVHRGHQQVVATARQAAQAQHAKLAVMTFDQHPSVVFKHTDPQQVRYLTTIDQKTALMSELGVDILYVLHFDATVGAMPPQTFVDQLIVGLHAQTVVAGFDYTYGPAEIANMQRLNDYGHNRFEIIEVPKAELDAEKISSTRIRRALDAGDIDTANRLLGYQYETAGEVVHGEARGRTLGFPTANVAHGPNTRVPGIGIYATMVQIGTRWVMGMASVGRNVTFGDHRPITVEIYLLDFRGDLYGHNLTVRWGHRMRGEIKFAGADALVAQLKRDEQNTRDYYVAHPFVVAPRIQVAQQSNRLEAQ	not soluble
MSWLKEVIGTEKAVIAMCHLRALPGDPSFDAQLGMNWVIDKAWDDLMALQNGGVDAVMFSNEFSLPYLTKVRPETTAAMARIIGQLMSDIRIPFGVNVLWDPVASFDLAMATGAKFIREIFTGAYASDFGVWDTNVGETIRHQHRIGAGEVKTLFNIVPEAAVYLGNRDICSIAKSTVFNNHPDALCVSGLTAGTRTDSALLKRVKETVPDTVVLANTGVCLENVEEQLSIADGCVTATTFKKDGVFANFVDQARVSQFMEKVHHIRR	not soluble
MAHHHHHHMFANLDEEKKARLRERILQAAAAPPPAATPARSNSDSDGEQEVPPQHTESTKHASEQLAINAQSTDIDIANIRLFTLDELDLNQLTECKTLSLRKNLIHELSAFPQHLAGRLVELDLFDNKIRKVRDFFDSAMVPDPESGSLSKKAVPHAFYSLTKLDLSYNQLRKITGLDSLGSTLKELYLVENKIKVIEGLDSFVHLELLELGGNRIREIGSGLSNLRSLQSLWLGKNKIHSIGDSLHNLRELRKLSLQANRLTSITAEAFKEGCNPYLAELYLSENGISTIENLPLHSLHLLDFSFNPISTINEAVINPTNMPELEEFWLTDGSISDWGEVKKFCGFANTLRTIYVERNPIEQDKRYRDKVYMNLPFVTQIDSWPVVNKDNLEGDRLIQRRAS	not soluble
MHQLWTYDPAAGTVEVGAGTTNEGLVDGPGEEAWFAQPSGLAATADRLWLADSETSALRWVDLDGAVHTAVGTGLFDFGHRDGDAEQALLQHPLGVTALPDGSVAVSDTYNHALRRYDPATGEVTTLATDLREPSDAVLVGDDIVVVESARHRLTRLRLPEEAVRVASVAHRTQRAATEVAPGRLQLDVIFQAPAGQKLDTRYGPSTRLLVSSTPPELLLNGEGADPDLSRTLELNPAIPEGVLHVSAMAASCDDDPANEYPACHVHQQDWGVPVRLTEGGADRLPLVLAGMDALEHHHHHH	not soluble
